Test results: patent publication US20200347139A1 (INHIBRX BIOSCIENCES, published 2020)

What was measured:
[1] = biological target: T1, mFc-CLEC12a-ECD (human); assay: BLI, mFc-CLEC12a-ECD captured on anti-mFc sensors, 100 nM sdAb as first sdAb
T1 construct: It was immobilized on anti-mFc capture sensors for BLI; also called CLEC12a antigen
T1 chain: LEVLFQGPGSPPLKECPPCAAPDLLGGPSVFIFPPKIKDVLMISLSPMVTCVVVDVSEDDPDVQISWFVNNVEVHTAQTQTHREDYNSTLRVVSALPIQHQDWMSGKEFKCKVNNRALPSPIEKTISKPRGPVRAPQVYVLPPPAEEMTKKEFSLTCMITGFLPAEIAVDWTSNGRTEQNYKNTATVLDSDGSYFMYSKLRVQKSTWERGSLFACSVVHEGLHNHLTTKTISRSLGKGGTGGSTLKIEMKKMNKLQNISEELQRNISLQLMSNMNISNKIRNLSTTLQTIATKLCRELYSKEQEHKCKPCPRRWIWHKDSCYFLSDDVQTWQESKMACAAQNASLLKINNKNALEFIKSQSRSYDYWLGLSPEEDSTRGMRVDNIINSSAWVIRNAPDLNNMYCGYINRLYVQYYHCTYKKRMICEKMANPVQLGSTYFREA
Protocol: The epitopes of single domain antibodies (sdAbs) that comprise VHH domains that bind CLEC12a were compared using Bio-Layer Interferometry. 7 μg/mL of mFc-CLEC12a-ECD (SEQ ID NO: 87) was immobilized on anti-mFc coated capture sensors. 100 nM of one sdAb was then loaded onto the CLEC12a antigen and allowed to come to equilibrium. The sensors were then transferred into 100 nM of a second sdAb.

[2] = biological target: T2, human CLEC12a expressed on transiently transfected HEK 293 cells (human, UniProt Q5QGZ9 1-265); assay: flow cytometry on HEK 293 cells transfected with human CLEC12a; apparent Kd, one-site fit
T2 construct: also called CLL-1; CLL1
T2 sequence: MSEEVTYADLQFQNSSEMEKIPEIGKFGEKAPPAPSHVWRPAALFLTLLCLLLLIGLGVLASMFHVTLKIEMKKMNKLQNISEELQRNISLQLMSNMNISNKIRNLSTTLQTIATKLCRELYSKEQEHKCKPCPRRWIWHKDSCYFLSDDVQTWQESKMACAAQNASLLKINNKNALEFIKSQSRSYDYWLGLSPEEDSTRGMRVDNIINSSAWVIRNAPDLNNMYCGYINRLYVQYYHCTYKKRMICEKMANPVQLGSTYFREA
Protocol: Binding of sdAbs to human CLEC12a was assessed by flow cytometry. […] HEK 293 cells were transiently transfected with a plasmid encoding CLEC12a (UniProt Accession No. Q5QGZ9.3; SEQ ID NO: 1) and used as the positive cell line, and untransfected HEK 293 cells were used as CLEC12a-negative cells. Each cell type was plated at 30,000 cells/well in FACS buffer (PBS 1% BSA, 0.1% NaN₃ pH 7.4) on a 96-well round-bottom plate. The sdAbs were diluted in FACS buffer in a 3-fold, 11 point serial dilution. The sdAb dilutions were added to the plated cells, and assay plates were incubated for 30 minutes at 4° C. After washing twice in 150 μL of FACS buffer, cells in each well were resuspended in 100 μL of 1:2000 Alexa Fluor 647-conjugated Anti-Human IgG secondary diluted in FACS buffer and incubated at 4° C. for 30 minutes. The cells were washed twice more, then bound antibody was detected by flow cytometry.
Flow cytometric analysis was performed on an Intellicyte iQue Plus and fluorescence was plotted as median fluorescence intensity. The apparent affinity (Kd, nM) was determined using one site binding non-linear regression in PRISM graph software.

- binding result [1]: binds
- Kd [2]: 0.3 nM
B1: hzMB11v13 sdAb (VHH hzMB11v13 fused to human IgG1 xELL Fc) (Fc fusion)
chain: EVQLVESGGGEVQPGGSLRLSCAASGFLFSIYDMNWYRQAPGKEREWVAGITNNGYSTAYAESVKGRFTISRDNAKNTIYLQMSSLRAEDTAVYYCHADLTKAYDVEYAWGQGTLVTVDKTHTCPPCPAPGGPSVFLFPPKPKDTLMISRTPEVTCVVVDVSHEDPEVKFNWYVDGVEVHNAKTKPREEQYNSTYRVVSVLTVLHQDWLNGKEYKCKVSNKALPAPIEKTISKAKGQPREPQVYTLPPSRDELTKNQVSLTCLVKGFYPSDIAVEWESNGQPENNYKTTPPVLDSDGSFFLYSKLTVDKSRWQQGNVFSCSVMHEALHNHYTQKSLSLSPGK
notes: Humanized version of MB11; No linker is stated; also called hzMB11v13-IgG1
